Measured values from patent US7169891B2, “Human pellino polypeptides” (Immunex Corporation, priority 2000, dated 2007).
Where a chain is given by its changes, count along the chain named. Names and notes keep the numbering of the source. “Also recorded” adds a separate entry of the source. Non-standard residues stand in square brackets, D forms with d. Residues, ends and D or L forms follow the SMILES beside them. *: point of attachment. Nle = CCCC[C@H](N)C(=O)O; Cbz = O=C(OCc1ccccc1)*; CH2F = FC*

B1: dN50-FLAG: murine Pellino-1-FLAG, N-terminal 50 amino acids deleted (protein, UniProt Q8C669 51-418, looked up, fragment)
chain: GVKPSTVHIACTPQAAKAISNKDQHSISYTLSRAQTVVVEYTHDSNTDMFQIGRSTESPIDFVVTDTVPGSQSNSDTQSVQSTISRFACRIICERSPPFTARIYAAGFDSSKNIFLGEKAAKWKTSDGQMDGLTTNGVLVMHPRNGFTEDSKPGIWREISVCGNVFSLRETRSAQQRGKMVEIETNQLQDGSLIDLCGATLLWRTAEGLSHTPTVKHLEALRQEINAARPQCPVGFNTLAFPSMKRKDVVDEKQPWVYLNCGHVHGYHNWGNKEERDGKDRECPMCRSVGPYVPLWLGCEAGFYVDAGPPTHAFSPCGHVCSEKTTAYWSQIPLPHGTHTFHAACPFCAHQLAGEQGYIRLIFQGPLD
modifications: FLAG tag
notes: murine Pellino-1-FLAG, N-terminal 50 amino acids deleted
B2: 1–350: murine Pellino-1, only amino acids 1–350 present (protein, UniProt Q8C669 1-350, looked up, fragment)
chain: MFSPDQENHPSKAPVKYGELIVLGYNGSLPNGDRGRRKSRFALFKRPKANGVKPSTVHIACTPQAAKAISNKDQHSISYTLSRAQTVVVEYTHDSNTDMFQIGRSTESPIDFVVTDTVPGSQSNSDTQSVQSTISRFACRIICERSPPFTARIYAAGFDSSKNIFLGEKAAKWKTSDGQMDGLTTNGVLVMHPRNGFTEDSKPGIWREISVCGNVFSLRETRSAQQRGKMVEIETNQLQDGSLIDLCGATLLWRTAEGLSHTPTVKHLEALRQEINAARPQCPVGFNTLAFPSMKRKDVVDEKQPWVYLNCGHVHGYHNWGNKEERDGKDRECPMCRSVGPYVPLWLGCE
B3: dN99-FLAG: murine Pellino-1-FLAG, N-terminal 99 amino acids deleted (protein, UniProt Q8C669 100-418, looked up, fragment)
chain: FQIGRSTESPIDFVVTDTVPGSQSNSDTQSVQSTISRFACRIICERSPPFTARIYAAGFDSSKNIFLGEKAAKWKTSDGQMDGLTTNGVLVMHPRNGFTEDSKPGIWREISVCGNVFSLRETRSAQQRGKMVEIETNQLQDGSLIDLCGATLLWRTAEGLSHTPTVKHLEALRQEINAARPQCPVGFNTLAFPSMKRKDVVDEKQPWVYLNCGHVHGYHNWGNKEERDGKDRECPMCRSVGPYVPLWLGCEAGFYVDAGPPTHAFSPCGHVCSEKTTAYWSQIPLPHGTHTFHAACPFCAHQLAGEQGYIRLIFQGPLD
modifications: FLAG tag
notes: murine Pellino-1-FLAG, N-terminal 99 amino acids deleted
B4: wild-type Pellino-2: wild-type Pellino-2 polypeptide expressed in COS cells; species not stated at the result (protein, UniProt Q9HAT8 1-420, looked up)
E3 ubiquitin-protein ligase …: MFSPGQEEHCAPNKEPVKYGELVVLGYNGALPNGDRGRRKSRFALYKRPKANGVKPSTVHVISTPQASKAISCKGQHSISYTLSRNQTVVVEYTHDKDTDMFQVGRSTESPIDFVVTDTISGSQNTDEAQITQSTISRFACRIVCDRNEPYTARIFAAGFDSSKNIFLGEKAAKWKNPDGHMDGLTTNGVLVMHPRGGFTEESQPGVWREISVCGDVYTLRETRSAQQRGKLVESETNVLQDGSLIDLCGATLLWRTADGLFHTPTQKHIEALRQEINAARPQCPVGLNTLAFPSINRKEVVEEKQPWAYLSCGHVHGYHNWGHRSDTEANERECPMCRTVGPYVPLWLGCEAGFYVDAGPPTHAFTPCGHVCSEKSAKYWSQIPLPHGTHAFHAACPFCATQLVGEQNCIKLIFQGPID
B5: 1–250: murine Pellino-1, only amino acids 1–250 present (protein, UniProt Q8C669 1-250, looked up, fragment)
chain: MFSPDQENHPSKAPVKYGELIVLGYNGSLPNGDRGRRKSRFALFKRPKANGVKPSTVHIACTPQAAKAISNKDQHSISYTLSRAQTVVVEYTHDSNTDMFQIGRSTESPIDFVVTDTVPGSQSNSDTQSVQSTISRFACRIICERSPPFTARIYAAGFDSSKNIFLGEKAAKWKTSDGQMDGLTTNGVLVMHPRNGFTEDSKPGIWREISVCGNVFSLRETRSAQQRGKMVEIETNQLQDGSLIDLCGAT
B6: dN230-FLAG: murine Pellino-1-FLAG, N-terminal 230 amino acids deleted (protein, UniProt Q8C669 231-418, looked up, fragment)
chain: VEIETNQLQDGSLIDLCGATLLWRTAEGLSHTPTVKHLEALRQEINAARPQCPVGFNTLAFPSMKRKDVVDEKQPWVYLNCGHVHGYHNWGNKEERDGKDRECPMCRSVGPYVPLWLGCEAGFYVDAGPPTHAFSPCGHVCSEKTTAYWSQIPLPHGTHTFHAACPFCAHQLAGEQGYIRLIFQGPLD
modifications: FLAG tag
notes: murine Pellino-1-FLAG, N-terminal 230 amino acids deleted
B7: Y154A-FLAG: murine Pellino-1-FLAG, Tyr to Ala substitution at residue 154 (protein, UniProt Q8C669 1-418, looked up, variant Y154A)
E3 ubiquitin-protein ligase …: MFSPDQENHPSKAPVKYGELIVLGYNGSLPNGDRGRRKSRFALFKRPKANGVKPSTVHIACTPQAAKAISNKDQHSISYTLSRAQTVVVEYTHDSNTDMFQIGRSTESPIDFVVTDTVPGSQSNSDTQSVQSTISRFACRIICERSPPFTARIAAAGFDSSKNIFLGEKAAKWKTSDGQMDGLTTNGVLVMHPRNGFTEDSKPGIWREISVCGNVFSLRETRSAQQRGKMVEIETNQLQDGSLIDLCGATLLWRTAEGLSHTPTVKHLEALRQEINAARPQCPVGFNTLAFPSMKRKDVVDEKQPWVYLNCGHVHGYHNWGNKEERDGKDRECPMCRSVGPYVPLWLGCEAGFYVDAGPPTHAFSPCGHVCSEKTTAYWSQIPLPHGTHTFHAACPFCAHQLAGEQGYIRLIFQGPLD
modifications: FLAG tag
B8: F165L-FLAG: murine Pellino-1-FLAG, Phe to Leu substitution at residue 165 (protein, UniProt Q8C669 1-418, looked up, variant F165L)
E3 ubiquitin-protein ligase …: B7 E3 ubiquitin-protein ligase … with A154Y, F165L
modifications: FLAG tag
B9: F158A-FLAG: murine Pellino-1-FLAG, Phe to Ala substitution at residue 158 (protein, UniProt Q8C669 1-418, looked up, variant F158A)
E3 ubiquitin-protein ligase …: B7 E3 ubiquitin-protein ligase … with A154Y, F158A
modifications: FLAG tag
B10: dN180-FLAG: murine Pellino-1-FLAG, N-terminal 180 amino acids deleted (protein, UniProt Q8C669 181-418, looked up, fragment)
chain: DGLTTNGVLVMHPRNGFTEDSKPGIWREISVCGNVFSLRETRSAQQRGKMVEIETNQLQDGSLIDLCGATLLWRTAEGLSHTPTVKHLEALRQEINAARPQCPVGFNTLAFPSMKRKDVVDEKQPWVYLNCGHVHGYHNWGNKEERDGKDRECPMCRSVGPYVPLWLGCEAGFYVDAGPPTHAFSPCGHVCSEKTTAYWSQIPLPHGTHTFHAACPFCAHQLAGEQGYIRLIFQGPLD
modifications: FLAG tag
notes: murine Pellino-1-FLAG, N-terminal 180 amino acids deleted

Experiments:
[1] = tested on: Pellino-1 Cleavage and Relocation; experiment: Effect of protease and other inhibitors on PMA-induced Pellino-1 cleavage and relocation in COS7 cells; format: cell-based, monkey; conditions: for Effect on Pellino-1 Cleavage and Relocation: COS7 cells treated with PMA
Description: In an effort to determine which protease might be involved in the regulation of Pellino-1 cleavage, COS7 cells transfected with a Pellino-1-expressing construct were treated with PMA together with inhibitors of different classes of proteinases as shown in Table 3 below.

[2] = tested on: NF-kB-dependent reporter gene; experiment: NF-kB-dependent reporter gene (luciferase) assay in transfected COS cells; format: cell-based, monkey; conditions: for Effect on Reporter Gene: NF-kB-dependent reporter gene activity, form of murine Pellino-1 expressed in COS cells
Source text: The murine Pellino-1 coding sequence DNA was fused, in frame at the 3′ end, to DNA encoding the FLAG epitope, followed by an in-frame stop codon. This construct was cloned into the mammalian expression vector pDC304 (identical to pDC302, described in U.S. Pat. No. 5,599,905, issued Feb. 4, 1997, except that the early splice region, consisting of splice donor and acceptor sites of the SV40 viral element, has been removed); and transfected into an IL-1-responsive line of COS-7 cells by the DEAE-dextran method.
In order to assay the effect of the Pellino-1-FLAG polypeptide and other forms of Pellino polypeptides on reporter gene activity, a method essentially as described in Born et al., 1998, J. Biol. Cheni. 273: 29445–29450 (which is incorporated by reference herein) can be used. As one example of this method, Cos7 cells were transiently transfected by the DEAE-dextran method as described (Cosman et al., 1984, Nature 312: 768–771, which is incorporated by reference herein), using 150 ng of the Pellino polypeptide expression construct and 700 ng of the reporter plasmid per 45,000 cells. Two days post-transfection, cells were stimulated with 10 ng/ml IL-1 or 40 ng/ml IL-18 (PeproTech, Inc.) for 4 hours. Cells were lysed and luciferase activity assessed using Reporter Lysis Buffer and Luciferase Assay Reagent (Promega Corp.). IL-8 promoter-reporter and NFkB-dependent reporter constructs may be used as reporter plasmids. Alternatively, the effect of Pellino polypeptide expression may be assayed in COS-1 cells. In an alternative preferred method, COS7 cells were grown in 12-well dishes as described above. The cells were transiently transfected with Pellino test plasmid, 50 ng of reporter plasmid DNA, and empty vector, as required, to a total of 1 micrograms of total DNA per well. After 24 hours, stimulating agents were added in a small amount (less than 0.5% final volume) of medium or dimethyl sulfoxide, and the cells were re-incubated for 5 hours. Cells were lysed in luciferase Reporter Lysis Buffer (Promega, Madison Wis., 0.25 ml per well) and luciferase activity was measured in a EG & G/Berthold luminometer after addition of Luciferase Assay Reagent (Promega) according to the supplier's instructions. All results were normalized to total protein content of the lysates as measured using the micro-BCA assay (Pierce, Rockford, Ill).

Molecule	Effect on Reporter Gene [2]	also measured
CCCC[C@@H](C=O)NC(=O)[C@H](CC(C)C)NC(=O)[C@H](CC(C)C)NC(C)=O [ALLN] (Ac-Leu-Leu-[Nle]-aldehyde)		Effect on Pellino-1 Cleavage and Relocation ([1]; inhibitor 20 microM): none
C[C@@H]1C[C@@H]([C@H](O)CC2CC(=O)NC(=O)C2)C(=O)[C@@H](C)C1 [Cycloheximide]		Effect on Pellino-1 Cleavage and Relocation ([1]; inhibitor 40 microM): inhibition; PMA-induced Pellino-1 cleavage (and relocation) ([1]; treatment of FLAG-Pellino-1-transfected COS7 cells with the inhibitor): largely prevented; also recorded: completely prevented
CC(=O)N[C@@H](CSC(=O)[C@]1([C@@H](O)C(C)C)NC(=O)[C@H](C)[C@@H]1O)C(=O)O [Lactacystin]		Effect on Pellino-1 Cleavage and Relocation ([1]; inhibitor 20 microM): none
CC(C)C[C@@H](C=O)NC(=O)[C@H](CC(C)C)NC(=O)[C@H](CC(C)C)NC(=O)OCc1ccccc1 [MG132] (Cbz-Leu-Leu-Leu-aldehyde)		Effect on Pellino-1 Cleavage and Relocation ([1]; inhibitor 10 microM): none
Cc1ccc(S(=O)(=O)N[C@@H](Cc2ccccc2)C(=O)CCl)cc1 [TPCK]		Effect on Pellino-1 Cleavage and Relocation ([1]; inhibitor 20 microM): inhibition
COC(=O)CC[C@H](NC(=O)[C@H](CC(=O)OC)NC(=O)OCc1ccccc1)C(=O)N[C@H](C(=O)N[C@@H](CC(=O)OC)C(=O)CF)C(C)C [Z-DEVD-FMK]		Effect on Pellino-1 Cleavage and Relocation ([1]; inhibitor 20 microM): none
COC(=O)C[C@H](NC(=O)[C@H](C)NC(=O)[C@@H](NC(=O)OCc1ccccc1)C(C)C)C(=O)CF [Z-VAD-FMK] (Cbz-Val-Ala-Asp(OMe)-CH2F)		Effect on Pellino-1 Cleavage and Relocation ([1]; inhibitor 20 microM): none
B1	Inhibitory	
B2	inactive	
B3	Inhibitory	
B4		NFkB-dependent reporter gene activity ([2]; COS cells transfected with high concentrations of expressing construct): inhibitory effect
B5	inactive	
B6	inactive	
B7	Stimulatory	
B8	Stimulatory	
B9	Slightly	
B10	inactive	
